Measured values: PMC6588637, “Immunization with merozoite surface protein 2 fused to a Plasmodium-specific carrier protein elicits strain-specific and strain-transcending, opsonizing antibody” (Scientific Reports, 2019)

Target: the molecule itself
Assay: Thioflavin T fluorescence assay of amyloid-like fibril formation; 10 μM recombinant protein in PBS without sarkosyl, 30 μM ThT, 37 °C for up to 98 hours; in parallel with 40 μM EGCG, an inhibitor of fibril formation

B1: unfused recombinant Plasmodium falciparum merozoite surface protein 2 (3D7 allele) (domain or fragment)
chain: KNESKYSNTFINNAYNMSIRRSMAESKPSTGAGGSAGGSAGGSAGGSAGGSAGGSAGSGDGNGADAEGSSSTPATTTTTKTTTTTTTTNDAEASTSTSSENPNHKNAETNPKGKGEVQEPNQANKETQNNSNVQQDSQTKSNVPPTQDADTKSPTAQPEQAENSAPTAEQTESPELQSAPENKGTGQHGHMHGSRNNHPQNTSDSQKECTDGNKENCGAATSLLNNSS
notes: Predicted molecular weight 24,721 daltons; also called rPfMSP2; rPfMSP2 (3D7); not shown: His6, N-terminal, kept
B1: binds.
